What was measured:
[1] = biological target: T1, SARS-CoV-2 RBD (residues Arg319-Phe541), His-tagged (SARS-CoV-2, UniProt P0DTC2); experiment: SPR; conditions: both partners purified
[2] = biological target: T1, SARS-CoV-2 RBD (residues …); experiment: cryo-EM structure; conditions: both partners purified

| Binder | binding result [1] | binding result [2] |
| --- | --- | --- |
| MA1 monoclonal antibody (antibody, V domains shown, also called group I mAb; source: hybridoma cell line or transfection of linear expression cassettes) VH: QVQLKESGPGLVAPSQSLSITCTVSGFSLSDYSISWIRQPPGKGLEWLGVIWGGGSTYYNSALKSRLSISKDNSKSQVFLKMNSLQTDDTAMYYCAKHPLYYGSNSDGYYAMDYWGQGTSVTVSS VL: DIVMTQSHKFMSTSVGDRVSITCKASQDVGIVVAWYQQKPGQSPKLLIYWASTRHTGVPDRFTGSGSGTDFTLTISNVQSEDLADYFCQQYSSYPLTFGGGTKLEIK | binds | – |
| MA1scFv (scFv, V domains shown) VH: QVQLKESGPGLVAPSQSLSITCTVSGFSLSDYSISWIRQPPGKGLEWLGVIWGGGSTYYNSALKSRLSISKDNSKSQVFLKMNSLQTDDTAMYYCAKHPLYYGSNSDGYYAMDYWGQGTSVTVSS VL: DIVMTQSHKFMSTSVGDRVSITCKASQDVGIVVAWYQQKPGQSPKLLIYWASTRHTGVPDRFTGSGSGTDFTLTISNVQSEDLADYFCQQYSSYPLTFGGGTKLEIK | – | binds |

From paper PMC8441738 (MedComm, 2021)
